Test [1] relates to PA27853 (flagellin type A). Kind of test: ELISA on formaldehyde-fixed PA27853. The class given is binding, P. aeruginosa. The note with it: fixed whole bacteria ELISA, 1 nM mAb. How it is done: (§1) From a single fresh bacterial colony, PA strains 27853 (harboring flagellin type A) or Ka02 (harboring flagellin type B) were grown overnight in 5 ml LB at 37° C. Thereafter, bacterial cultures were centrifuged at 1500 g for 30 min and following removal of the clear supernatant, pellets were washed twice with 20 ml PBS with intervening centrifugation. The final pellet was resuspended in a volume of PBS (˜10 ml) and adjusted to generate an OD600 of ˜0.2 and maintained on ice prior to coating on ELISA plates which were prepared as follows: to the wells of flat-bottomed ELISA plates (Nunc, cat #442404), 50 μl poly-L-lysine (PLL, Sigma Cat # P-1524) of a 1 μg/ml solution was added and plates were incubated for 30 min at room temperature. Thereafter, non-adsorbed PLL was removed. Fifty μl of the appropriate bacterial suspensions from the different strains at 0.2 OD600 nm were added to the PLL-coated ELISA plates. In some wells, a “mixed-bacterial population” was added. To that end, 25 μl of PA 27853 and 25 μl of Ka02 bacterial suspensions were added to the same wells. […]
(§2) ELISA plates containing the fixed P. aeruginosa bacteria, were blocked by adding 200 μl PBS-10% FBS for 60 min at room temperature. […] Thereafter, signal was quenched with 50 μA 10% H2SO4 and plates read at 450 nm in a Microtiter plate reader (Anthos MultiRead 400).

The subject of test [2] is mixed PA27853 and Ka02 bacteria. The experiment in a line: ELISA on mixed fixed bacteria. It is filed as binding, P. aeruginosa. The note with it: 1 nM mAb; wells coated with half the amount of each strain. How it is done:
as §1
ELISA plates containing the fixed P. aeruginosa bacteria, were blocked by adding 200 μl PBS-10% FBS for 60 min at room temperature. […] Thereafter, signal was quenched with 50 μA 10% H2SO4 and plates read at 450 nm in a Microtiter plate reader (Anthos MultiRead 400). […]

Test [3] addresses P. aeruginosa flagellin type B (Pseudomonas aeruginosa, UniProt P72151). The experiment in a line: ELISA of LST-009 on recombinant flagellin type B. To be noted: 250 ng/well antigen. It is filed as binding. The procedure: (§3) Two hundred and fifty ng (250 ng) of P. aeruginosa flagellin type A or B (50 μl from 5 μg/ml) were dispensed into each well of ELISA plates (Nunc, cat #442404) and coating allowed to proceed for 2 hours at room temperature with gentle shaking. Plates were then blocked with 200 μl PBS-10% fetal bovine serum (FBS) overnight at 4° C.
(§4) To that end, following three washes with PBS-0.05% Tween-20, 50 μl of a goat anti-human IgG (Fc)-HRP (Cat # A80-104P; Bethyl, Tex., USA) was added at a dilution of 1:10,000 in PBS-10% FBS with incubation allowed to proceed for 60 min at room temperature. Following 3 separate washes with PBS-Tween-20 (0.05%) and gentle tapping of plates on paper towels to remove final traces of wash buffer, 50 μl TMB/E substrate solution (Cat #ES001-500 ml; Millipore) was added for 15 min at room temperature. Thereafter, signal was quenched with 50 μl 10% H2SO4 and plates read at 450 nm in a Microtiter plate reader (Anthos MultiRead 400).
(An ELISA detects its analyte on a solid surface through an enzyme-linked reagent.)

Another test has as its system Ka02 (flagellin type B). Kind of test: ELISA on formaldehyde-fixed Ka02. It is filed as binding, P. aeruginosa. The note with it: fixed whole bacteria ELISA, 1 nM mAb. The procedure: as §1, §2
Test [4] concerns flagellin type A strains (PA141, PA49, PA1, PA409 and PAK). Kind of test: Western blot of P. aeruginosa lysates, flagellin type A strains. The class given is binding. To be noted: mAb 10 μg/ml. How it is done: (§5) The binding specificity of the chimeric LST-003 mAb was assessed in a western blot experiment as compared to the parental mouse LST-001 mAb. Two identical, yet separate nitrocellulose membranes containing a panel of blotted P. aeruginosa lysates of type A or B flagellin following electrophoresis were hybridized with either mouse LST-001 (FIG. 5A) or chimeric LST-003 (FIG. 5B) mAbs at identical final concentrations (10 μg/ml) with the ensuing detecting secondary peroxidase-conjugated antibodies being anti-mouse Fc or anti-human Fc respectively. Laboratory strains PAK (type A flagellin) or PA01 (type B flagellin) were included as appropriate controls whereas other strains represented multi-drug resistant (MDR) P. aeruginosa strains. […] FIG. 6 also depicts binding of LST-001, LST-002 and LST-003 to immobilized, whole P. aeruginosa as measured in an ELISA and confirms the western blot findings. See below in Example 7 for the ELISA protocol.
(In general: In western blotting, separated proteins are transferred to a membrane and probed.)

The target in test [5] is T1, flagellin type B strains (PA21 and PA01) (Pseudomonas aeruginosa, UniProt P72151).
T1 construct: a panel of blotted P. aeruginosa lysates of type A or B flagellin; endogenous in cells; host or cells: P. aeruginosa strains PA21 (MDR isolate) and PA01 (laboratory strain)
T1 sequence (P72151 whole entry): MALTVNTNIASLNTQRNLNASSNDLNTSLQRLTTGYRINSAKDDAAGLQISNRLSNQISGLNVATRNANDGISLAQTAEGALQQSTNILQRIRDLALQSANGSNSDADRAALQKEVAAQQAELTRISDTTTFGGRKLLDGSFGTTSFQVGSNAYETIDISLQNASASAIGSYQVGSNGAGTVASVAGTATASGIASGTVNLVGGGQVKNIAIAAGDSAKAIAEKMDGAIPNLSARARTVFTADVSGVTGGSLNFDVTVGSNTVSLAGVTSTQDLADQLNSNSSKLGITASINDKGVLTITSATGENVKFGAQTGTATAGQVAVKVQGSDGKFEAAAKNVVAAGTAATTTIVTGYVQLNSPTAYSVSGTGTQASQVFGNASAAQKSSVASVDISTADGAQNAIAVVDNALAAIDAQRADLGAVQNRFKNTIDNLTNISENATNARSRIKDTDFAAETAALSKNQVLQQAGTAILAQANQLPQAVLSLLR
Kind of test: Western blot of P. aeruginosa lysates, flagellin type B strains. It is filed as binding. To be noted: mAb 10 μg/ml. The procedure:
as §5

In test [6] the target is P. aeruginosa flagellin type A (Pseudomonas aeruginosa, UniProt P21184). The experiment in a line: ELISA of LST-009 on recombinant flagellin type A. The class given is binding. To be noted: 250 ng/well antigen. How it is done: as §3, §4
Chain of P. aeruginosa flagellin type A (P21184 whole entry): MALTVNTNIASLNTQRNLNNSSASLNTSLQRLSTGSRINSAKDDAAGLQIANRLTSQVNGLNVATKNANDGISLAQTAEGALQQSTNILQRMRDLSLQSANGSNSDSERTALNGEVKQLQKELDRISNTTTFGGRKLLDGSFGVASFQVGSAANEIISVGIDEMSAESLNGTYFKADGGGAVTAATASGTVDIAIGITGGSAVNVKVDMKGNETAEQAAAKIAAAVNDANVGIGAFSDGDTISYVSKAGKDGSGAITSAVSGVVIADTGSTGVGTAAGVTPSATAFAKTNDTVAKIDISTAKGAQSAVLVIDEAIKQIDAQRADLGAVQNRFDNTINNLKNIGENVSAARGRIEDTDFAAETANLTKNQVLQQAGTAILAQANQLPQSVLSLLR

Chain of P. aeruginosa flagellin type B (P72151 whole entry): as the sequence (P72151 whole entry) above

B1: LST-004 (antibody, V domains shown)
VH: MNFGLSLVFLVLILKGVQCEVMLVESGGGLVKPGGSLKLSCAASGFTFSTFTMSWVRQTPEKRLECVATINGGGGNTYYPDSVKGRFTISRDNAKNNLYLQMSSLRSEDTAFYFCSRLYGIYAMDYWGQGTSVTVSS
VL: MKSHTQVFVYMLLWLSGVEGDIVMTQSHIFMSTSVGDRVSITCKASQDVGSAVAWYQQKPGQSPKVLIYWTSTRHTGVPDRFAGSGSGTEFTLTISNVQSEDLADYFCQQYSSYPLTFGAGTKLELKR
modifications: human IgG1 constant domains lacking entries
On to B1, for which the “binding to PA27853” value in test [1] is reported as “minimal signal”. Besides, the “OD as compared to FIG. 16 (full amount of bacteria)” value in test [2] is recorded as “approximately 50%”. Also, the “EC50 towards P. aeruginosa flagellin type B” value in test [3] is listed as “approximately 300 ng/ml”.

B2: LST-003 (antibody, V domains shown)
VH: MMVLSLLYLLTAIPGILSDVQLQESGPGLVKPSQSLSLPCSVTGYSITSGYYWNWIRQFPGNKLEWMGYIRYDGNNNYNPSLKNRISITHDTSKNQFFLKLNYVTTEDTATYYCARGLQFYFDSWGQGTTLTVSS
VL: MVLILLLLWVSGTCGDIVMSQSPSSLAVSGGEKVTMSCKSSQSLLNGSYQKHTLAWYQQKPGQSPKLLIYWASTRESGVPDRFTGSGSGTDFTLTISSVKAEDLAVYYCQQYYSYPWTFGGGTKLEIKR
modifications: human IgG1 constant domains lacking entries
B2: the “OD as compared to FIG. 16 (full amount of bacteria)” value in test [2] is “approximately 50%”. In addition, the “binding to Ka02” value with Ka02 (flagellin type B) is “failed to bind Ka02”. Also, the “immunoblot reactivity to flagellin type A strains” value in test [4] is recorded as “stronger binding”. The “immunoblot reactivity to flagellin type B strains” value in test [5] is “not flagellin type B”. The “EC50 towards P. aeruginosa flagellin type A” value in test [6] is “approximately 65 ng/ml”.

Values taken from US8653242B2, “Therapeutic antibodies against flagellated Pseudomonas aeruginosa” (priority 2010, dated 2014).
